Tested on: COc1cc2c(c(OC)c1OC)-c1ccc(OC)c(=O)cc1[C@@H](NC(C)=O)CC2
Experiment: TP_TRANSPORTER: uptake in membranes from CEM/VLB100 cells
Format: functional, cell membranes, Membrane

Question: Which Km does the source give for “ATP-dependent translocase ABCB1 (Homo sapiens)” here?
Answer: 1.33 µM

From ChEMBL document CHEMBL2074321, “A continuous fluorescence assay for the study of P-glycoprotein-mediated drug efflux using inside-out membrane vesicles” (Anal Biochem, 1999)
